In the supplement of paper PMC9732359:
± gives the uncertainty stated by the source.

Assay: protein stability index of a GFP-peptide fusion (yeast GPS) (PSI 1-4); higher = more stable; sorted into four equal gates, so the index is relative within each strain
Method in brief: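 For each peptide, the protein stability index sums the read frequency in every gate after multiplying it by the gate number. Read frequencies came from plasmids that were PCR-amplified from each gate and Illumina-sequenced, with reads assigned to strains by barcodes. The gates were four equal bins of GFP/Cherry fluorescence ratio applied to mid-log yeast in leucine-free medium carrying a pooled library of tiled 17-residue yeast protein peptides fused downstream of GFP on a Cherry-expressing plasmid.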

Sequence | protein stability index (doa10∆) | protein stability index (pdr5∆) | protein stability index (san1∆) | protein stability index (ubr1∆)
VSSTIPRETIPFLHLRK [FAS2] | 2.93 ± 0.27 | 2.35 ± 0.13 | 2.79 ± 0.16 | 2.6 ± 0.15
VSTAAAATVRSTIRRLR [RPL43A] | 2.54 ± 0.076 | 2.8 ± 0.07 | 2.13 ± 0.1 | 2.95 ± 0.057
VSTKMHRTIVIRRAYLH [RPS11A] | 1.37 ± 0.047 | 1.14 ± 0.054 | 1.54 ± 0.087 | 1.12 ± 0.033
VSTPEKWDITTRNSNNL [BRR2] | 3.27 ± 0.14 | 3.19 ± 0.17 | 3.26 ± 0.082 | 3.04 ± 0.069
VTIASEIYYDPDPRSTV [RPO21] | 2.41 ± 0.14 | 2.86 ± 0.14 | – | 2.52 ± 0.11
VTIREQINIMPSLKAHF [SIR3] | 2.53 ± 0.077 | 2.83 ± 0.075 | 2.85 ± 0.059 | 2.68 ± 0.043
VTKEYFQDVYDLTGSEP [FAS1] | 2.53 ± 0.23 | 2.82 ± 0.078 | 1.43 ± 0.18 | 2.68 ± 0.092
VTKQSELNSSEDILEDM [SMC1] | 3.37 ± 0.065 | 3.25 ± 0.059 | 3.22 ± 0.041 | 3.18 ± 0.049
VTRLFFICSIIQTVVIS [YML031W/NDC1] | 1.23 ± 0.051 | 1.28 ± 0.046 | 1.46 ± 0.076 | 1.75 ± 0.05
VTTKDDLSGADIQAMCT [RPT2] | 3.15 ± 0.07 | 3.3 ± 0.09 | 3.28 ± 0.038 | 3.35 ± 0.06
VTTNINWRSFNAKIIDA [SRP68] | 3.14 ± 0.081 | 3 ± 0.083 | 3.06 ± 0.059 | 3.18 ± 0.05
VTYALSGYVRSRGESDD [RPS21A] | 3.3 ± 0.22 | 3.07 ± 0.29 | 3.2 ± 0.16 | 3.3 ± 0.19
VVAKKDFNQAKHEEIDT [RPS10A] | 3.51 ± 0.2 | 2.54 ± 0.19 | 3.22 ± 0.099 | 3.09 ± 0.081
VVDGTVVSCSQHGFEVQ [RPB7] | 3.08 ± 0.071 | 3.11 ± 0.058 | 3.13 ± 0.068 | 3.28 ± 0.07
VVDHHVENELLQVDVDI [RRP42] | 3.4 ± 0.13 | 3.25 ± 0.21 | 2.83 ± 0.17 | –
VVDPKTSIEKSSEILSY [YML103C/NUP188] | 1.49 ± 0.087 | 1.43 ± 0.13 | 1.16 ± 0.12 | 1.12 ± 0.063
VVDVALKYPELSIKNSF [NUT1] | 3.04 ± 0.071 | 2.94 ± 0.056 | 2.97 ± 0.059 | 2.77 ± 0.047
VVEKEKIESLAGGGESD [UBP6] | 3.35 ± 0.2 | 2.84 ± 0.24 | 2.89 ± 0.19 | 3.34 ± 0.15
VVIDAKDHLLGRLASTI [RPL16B] | 1.33 ± 0.066 | 1.25 ± 0.07 | 1.17 ± 0.12 | 1.35 ± 0.078
VVKASELDQFWQEYSSV [SRP14] | 3.04 ± 0.061 | 2.9 ± 0.071 | 3.14 ± 0.072 | 3.27 ± 0.048
VVLYNYYLGQYYGCLEN [CSN12] | 2.5 ± 0.17 | 2.57 ± 0.15 | 2.51 ± 0.11 | 1.97 ± 0.13
VVNSNFAKEHNATVNLA [YJR042W/NUP85] | 2.82 ± 0.1 | 2.32 ± 0.12 | 2.75 ± 0.078 | 2.67 ± 0.13
VVPNEKADDDSVTIISA [ASC1] | 2.98 ± 0.072 | 2.9 ± 0.082 | 3.05 ± 0.049 | 2.91 ± 0.076
VVQDSQTATQLLERGRL [SMC2] | 2.9 ± 0.053 | 2.87 ± 0.08 | 2.81 ± 0.054 | 2.5 ± 0.058
VVVSGKLRAARAKAMKF [RPS3] | – | – | – | 3.28 ± 0.29
VWDKFAVNLLNCPHSDS [SSN2] | – | 2.81 ± 0.27 | – | –
VYAFKAKNKSTRINGLN [REC8] | 1.53 ± 0.1 | 1.65 ± 0.094 | 1.77 ± 0.19 | 1.59 ± 0.12

Sequence | protein stability index (doa10∆) | protein stability index (pdr5∆) | protein stability index (san1∆) | protein stability index (ubr1∆)
WDLLQSGSQNISEFDSF [RPN12] | 3.38 ± 0.16 | 3.14 ± 0.09 | 3.05 ± 0.12 | 3.22 ± 0.067
WGGFPLDISVFLLEKAG [TAF14] | 3.2 ± 0.11 | 3.38 ± 0.067 | 3.26 ± 0.06 | 3.15 ± 0.075
WIQVFGLRTENVLDYFA [MED6] | – | – | 2.38 ± 0.14 | 2.34 ± 0.067
WKEVLAHNPELERYVKR [RPO31] | 3.6 ± 0.11 | 3.85 ± 0.25 | 3.38 ± 0.1 | 3.45 ± 0.099
WKNLVLKLSQAFGSSAT [YJR042W/NUP85] | 2.58 ± 0.055 | 1.95 ± 0.053 | 2.22 ± 0.055 | 1.93 ± 0.044
WKYEDVVAKLEDKRKVR [RPL16B] | 3.12 ± 0.064 | 2.32 ± 0.059 | 2.36 ± 0.093 | 2.02 ± 0.045
WMMNGALQILNSGIIPG [FAS2] | 1.7 ± 0.092 | 1.86 ± 0.092 | 2.52 ± 0.15 | 1.46 ± 0.24
WNLNQFQIEADFIGHNS [ASC1] | 2.79 ± 0.079 | 2.7 ± 0.058 | 2.95 ± 0.076 | 2.52 ± 0.059
WNRLTISVTDTEVERAK [COR1] | 3.19 ± 0.09 | 3.12 ± 0.076 | 3.08 ± 0.051 | 3.21 ± 0.085
WTEASSSGAGTVKLYLP [ECM29] | 2.05 ± 0.052 | 1.82 ± 0.047 | 2.09 ± 0.067 | 2.02 ± 0.05
YAIIINYTKDNEYYPMC [YCS4] | 1.36 ± 0.071 | 1.44 ± 0.092 | 1.61 ± 0.13 | 1.51 ± 0.082
YAKEDAFSYPRMYEEAS [RPN2] | 2.66 ± 0.091 | 1.35 ± 0.082 | 1.27 ± 0.11 | 1.43 ± 0.058
YASKINRAEGPEELARI [RGR1] | 3.31 ± 0.12 | 3.26 ± 0.085 | 3.31 ± 0.067 | 3.24 ± 0.071
YAVAEQCPVKSAEDQLY [QCR2] | 3.22 ± 0.13 | – | 3.15 ± 0.14 | 3.34 ± 0.21
YDEDPYGFEDESAPITA [RPB2] | 3.05 ± 0.071 | 3.18 ± 0.054 | 3.24 ± 0.048 | 3.17 ± 0.065
YDGDTVTFSPTGRLFQV [PRE5] | 2.96 ± 0.089 | 2.98 ± 0.12 | 2.94 ± 0.14 | 3.08 ± 0.061
YDPKDALKNACNSIINK [RPB11] | 3.32 ± 0.24 | 3.23 ± 0.14 | 3.2 ± 0.084 | 3.37 ± 0.15
YEAPRHGHLGFLPRKRA [RPL3] | 2.99 ± 0.1 | 3.03 ± 0.071 | 2.88 ± 0.05 | 2.72 ± 0.09
YEDSGSTYKHDRGIANI [SRB4] | 3.29 ± 0.13 | 3.29 ± 0.14 | 3.25 ± 0.097 | 3.36 ± 0.096
YEFPIEGIEIYDRKKLP [RPC11] | 3.16 ± 0.14 | 3.01 ± 0.094 | 1.91 ± 0.14 | 3.3 ± 0.17
YEMVIREKNALKRLAWQ [ISW2] | 2.08 ± 0.047 | 2.5 ± 0.062 | 2.32 ± 0.048 | 2.37 ± 0.055
YEQHIENIEPLDPINLP [PRP8] | 2.38 ± 0.11 | 2.9 ± 0.091 | 2.5 ± 0.1 | 2.8 ± 0.071
YFKSILLNKNTGNNLYD [SWI1] | 2.59 ± 0.048 | 2.42 ± 0.036 | 2.04 ± 0.05 | 2.19 ± 0.031
YFLRRQYILQIVSFIVN [YJL039C/NUP192] | 1.2 ± 0.048 | 1.38 ± 0.068 | 1.31 ± 0.14 | 1.1 ± 0.055
YFRILLPYERHMISQEG [SWI1] | 1.37 ± 0.052 | 1.54 ± 0.047 | 1.5 ± 0.097 | 1.6 ± 0.045
YGGDGLDPLEMEGNAQP [RPO31] | 3.39 ± 0.081 | 3.43 ± 0.09 | 3.28 ± 0.07 | 3.29 ± 0.089
